Data taken from US20170073408A1 (Amgen, published 2017).
Substitutions are numbered along the chain they refer to.

T1: BMP4 (UniProt P12644 293-408)
T1 construct: Bought
T1 sequence (looked up): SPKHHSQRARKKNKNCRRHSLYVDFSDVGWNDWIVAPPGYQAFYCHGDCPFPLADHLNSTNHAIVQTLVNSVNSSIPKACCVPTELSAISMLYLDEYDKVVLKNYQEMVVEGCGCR

T2: GDF-8 (UniProt O14793 267-375)
T2 construct: Bought
T2 sequence (looked up): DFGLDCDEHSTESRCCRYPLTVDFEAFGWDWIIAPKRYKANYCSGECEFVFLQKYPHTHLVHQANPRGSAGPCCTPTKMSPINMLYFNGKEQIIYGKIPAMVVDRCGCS

T3: GDF-11 (UniProt O95390 299-407)
T3 construct: Bought
T3 sequence (looked up): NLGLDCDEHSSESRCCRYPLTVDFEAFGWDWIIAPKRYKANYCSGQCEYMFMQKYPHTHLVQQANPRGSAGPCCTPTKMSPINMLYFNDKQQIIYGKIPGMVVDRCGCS

T4: TGF-β-3 (UniProt P10600 301-412)
T4 construct: Bought
T4 sequence (looked up): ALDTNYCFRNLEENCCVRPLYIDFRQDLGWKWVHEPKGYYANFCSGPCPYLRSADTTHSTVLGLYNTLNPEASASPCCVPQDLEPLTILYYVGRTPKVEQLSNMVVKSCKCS

T5: activin B (UniProt P09529 293-407)
T5 construct: Bought (R & D Systems)
T5 sequence (looked up): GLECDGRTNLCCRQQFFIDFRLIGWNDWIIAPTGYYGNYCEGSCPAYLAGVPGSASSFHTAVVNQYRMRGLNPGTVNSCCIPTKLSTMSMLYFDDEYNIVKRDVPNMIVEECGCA

T6: A/B13-39
T6 construct: also called Activin A 13/39 B
T6 activin A/B chimeric subunit: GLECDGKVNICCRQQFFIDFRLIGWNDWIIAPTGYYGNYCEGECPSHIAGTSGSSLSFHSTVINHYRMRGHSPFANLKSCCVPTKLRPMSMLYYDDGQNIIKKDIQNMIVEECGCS

B1: anti-activin A monoclonal antibody A1 (antibody, human IgG2, lambda, V domains shown)
VH: QVQLVQSGAEVKKPGASVKVSCKASGYTFTSYGLSWVRQAPGQGLEWMGWIIPYNGNTNSAQKLQGRVTMTTDTSTSTAYMELRSLRSDDTAVYFCARDRDYGVNYDAFDIWGQGTMVTVSS
VL: not shown
notes: Fully human antibody from XenoMouse hybridoma (strains giving IgG2 kappa or IgG4 kappa); also called L1H1; Mab A1
B2: recombinant human activin A (mature) (ligand)
chain: T6 activin A/B chimeric subunit with R13K, Q14K, I18V, D19S, R21K, L22D, T33S, Y36H, G37A
notes: also called r-HuActivin A; rhActivin A

Columns and labels:
[1] = molecular target: B2; test: cell-based or functional assay
[2] = molecular target: T1, BMP4; test: BIAcore, antibody pre-incubated with ligand, ActRIIB/Fc on chip
Method: (§1) These assays were performed using BlAcore® technology, to determine the selectivity of binding of antibodies A1, A2 and A3 to various activins and other TGF-β family members, including activin A, activin B, activin AB, inhibin A, GDF-8, GDF-11, TGF-β-1, TGF-β-3, and BMP4 (all from R & D Systems). […] Because BlAcore assays detect changes in the refractive index, the difference between the response detected with injection over the immobilized receptor surfaces compared with the response detected with injection over the control surface in the absence of any antibody represents the actual binding of the various ligands to the receptor. With pre-incubation of antibodies and activin and TGF-β molecules, a change (increase or decrease) in binding response indicates antibody binding to the TGFβ family of molecules. The antibodies all bound to activin A but not to activin B, GDF-8, GDF-11, TGF-β-1, TGF-β-3, and BMP4, thus indicating specificity for activin A.

[3] = molecular target: T2, GDF-8; test: as above
Method: as §1

[4] = molecular target: T3, GDF-11; test: as above
Method: as §1

[5] = molecular target: T7, TGF-β-1 (UniProt P01137 279-390); test: as above
T7 construct: Bought
T7 sequence (P01137 279-390 limits assumed): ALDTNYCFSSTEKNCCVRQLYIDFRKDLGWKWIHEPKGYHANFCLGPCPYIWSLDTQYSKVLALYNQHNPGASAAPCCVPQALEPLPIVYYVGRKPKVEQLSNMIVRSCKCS
Method: as §1

[6] = molecular target: T4, TGF-β-3; test: as above
Method: as §1

[7] = molecular target: T5, activin B; test: affinity analysis of Example 15 (antibody immobilized on a surface)
[8] = molecular target: B2; test: affinity analysis of Example 15 (method of the KD not given)
[9] = molecular target: B2; test: BIAcore blocking assay, 1 nM activin A; competitor rhActivin RIB/Fc chimera on chip
Method: (§2) Blocking assays were conducted on immobilized recombinant human activin RIB-Fc chimera surfaces, recombinant human activin RIIB-Fc chimera surfaces, and recombinant human RIIA-Fc chimera recombinant surfaces, as described in Example 5. Monoclonal antibodies A1, A2, AKA1, and AKA2 on each chimera surface were incubated with 1 nM activin A, and the relative binding response (%) was measured.

[10] = molecular target: B2; test: BIAcore blocking assay, 1 nM activin A; competitor rhActivin RIIA/Fc chimera on chip
Method: as §2

[11] = molecular target: B2; test: BIAcore blocking assay, 1 nM activin A; competitor rhActivin RIIB/Fc chimera on chip
Method: as §2

[12] = molecular target: T6, A/B13-39; test: Biacore blocking: 100 nM antibody + diluted conditioned medium (CM) of the ligand over ActRIB-Fc surface
[13] = molecular target: B2; test: Biacore blocking: 1 nM Activin A + antibody over rhActRIB-Fc chimera surface. No unit in the drawn table; M by Table 7, which prints this value rounded as 0.29 nM
[14] = molecular target: T8, A31-2; test: KinExA solution equilibrium, antibody A31 fixed at 30 pM
T8 construct: bars A52-1, A31-2, A30-2) make A3 likely; not assigned here
Method: (§3) Solution-based equilibrium-binding assays using KinExA™ technology (Sapidyne Instruments, Inc.) were used to determine the dissociation equilibrium (KD) of activin A binding to antibody molecules. This solution-based assay is considered to be more sensitive than the BIAcore assay in some instances. Reacti-Gel™ 6× was pre-coated with about 50 μg/ml activin A overnight, and then blocked with BSA. 30 pM and 100 pM of antibody samples were incubated with various concentrations (0.5 pM to 5 nM) of activin A in sample buffer at room temperature for 8 hours before being run through the activin A-coated beads. The amount of the bead-bound antibody was quantified by fluorescent (Cy5) labeled goat anti-human-Fc antibody at 1 mg/ml in superblock. The binding signal was proportional to the concentration of free antibody at equilibrium with a given activin A concentration. KD was obtained from the nonlinear regression of the competition curves using a dual-curve one-site homogeneous binding model provided in the KinEx ATM software (Sapidyne Instruments, Inc.). […] A2 and A3 bound to activin A at ˜15 pM and ˜8 pM, respectively.

[15] = molecular target: T8, A31-2; test: KinExA solution equilibrium, antibody A31 fixed at 100 pM
Method: as §3

[16] = molecular target: B1; test: KinExA solution equilibrium, antibody A1 (A52) fixed at 30 pM
Method: as §3

[17] = molecular target: T9, anti-activin A monoclonal antibody A2; test: KinExA solution equilibrium, antibody A2 (A30) fixed at 30 pM
T9 construct: Fully human antibody from XenoMouse hybridoma; also called L2H2
T9 sequence (VH, as listed by the source, chain 1 of 2): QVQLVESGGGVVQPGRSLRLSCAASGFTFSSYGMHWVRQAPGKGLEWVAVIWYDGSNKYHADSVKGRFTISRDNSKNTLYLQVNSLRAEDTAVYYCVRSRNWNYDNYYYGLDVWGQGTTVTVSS
T9 sequence (VL, as listed by the source, chain 2 of 2): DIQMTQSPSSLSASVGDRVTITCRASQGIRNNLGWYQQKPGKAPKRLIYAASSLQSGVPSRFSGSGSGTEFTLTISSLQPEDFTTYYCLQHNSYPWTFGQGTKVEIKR
Method: as §3

[18] = molecular target: B1; test: KinExA solution equilibrium, antibody A1 (A52) fixed at 100 pM
Method: as §3

[19] = molecular target: T9, anti-activin A monoclonal antibody A2; test: KinExA solution equilibrium, antibody A2 (A30) fixed at 100 pM
Method: as §3

Cell IC50 (nM); luciferase activity of C2C12/pMARE reporter cells, activin A fixed at 4 nM [1] [nM]	binding result [2]	binding result [3]	binding result [4]	binding result [5]	binding result [6]	binding result [7]	Kd [8] [nM]	EC50 [9] [nM]	EC50 [10] [nM]	EC50 [11] [nM]	binding result [12]	EC50 [13] [nM]	IC50 (read off the curve) [14] [nM]	IC50 (read off the curve) [15] [nM]	IC50 (read off the curve) [16] [nM]	IC50 (read off the curve) [17] [nM]	IC50 (read off the curve) [18] [nM]	IC50 (read off the curve) [19] [nM]	Binder
< 3	no binding	no binding	no binding	no binding	no binding	no binding	~0.003	0.29	0.29	0.29	no binding (tested: 100 nM)	0.29							B1
													~0.03	~0.08	~0.02	~0.04	~0.07	~0.1	B2
